# Data from the supplement of paper PMC9170038.
# Test system: MS2 coat protein
# Experiment: apparent KD of MS2 coat protein; designed switch direction (-1 OFF switch, 1 ON switch): 1; higher = weaker reporter binding
# Summary of the method: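 Each step of the titration lasted 0.8–1.5 h at the lowest concentration and 10–20 min at the highest. The protein, SNAP-549-labelled MS2 coat protein, went from 0.7 or 1.5 nM doubling to 3 µM over RNA switches transcribed on Illumina chips by stalled E. coli RNA polymerase. Normalised cluster fluorescence was curve-fitted, and the per-design median over clusters is given as apparent KD.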
# [1] = input ligand: microRNA oligo, concentration not stated
# [2] = Eterna round: R95, input ligand: FMN 200 uM
# [3] = Eterna round: R95, input ligand: microRNA oligo, concentration not stated
# [4] = Eterna round: R95, input ligand: none
Sequence,apparent KD of MS2 coat protein (input ligand: FMN 200 uM),apparent KD of MS2 coat protein [1],apparent KD of MS2 coat protein (input ligand: none),apparent KD of MS2 coat protein [2],apparent KD of MS2 coat protein [3],apparent KD of MS2 coat protein [4]
"UUGCUCGUGUGAGGAUAUGCAGCCGUUUCGGCUGCAGAAGGUACUAUAAUACAUGAGGAUCACCCAUGUCUCUGUUGUUUCGUG [salish99_SSNG1_r04_931] (Eterna round: R96, puzzle: Same State NG 1)",27.3 nM,21 nM,27.5 nM,,,
"UUGCUCGUGUGAGGAUAUGCAGCCGUUUCGGCUGCAGAAGGUACUAUAAUACAUGAGGAUCACCCAUGUCUCUGUUGUUUGGUG [salish99_SSNG1_r04_930] (Eterna round: R96, puzzle: Same State NG 1)",69.7 nM,49.4 nM,63.7 nM,,,
"UUGCUCGUGUGAGGAUAUGCAGCCGUUUCGGCUGCAGAAGGUACUAUAAUACAUGAGGAUCACCCAUGUCUCUGUUGUUUUGUG [salish99_SSNG1_r04_929] (Eterna round: R96, puzzle: Same State NG 1)",26.9 nM,20.8 nM,25.4 nM,,,
"UUGCUCGUGUGAGGAUAUGCCGCCGUUUCGGCUGCAGAAGGUACUCUUUUACAUGAGGAUCACCCAUGUCUCUGUUGUUUCGUG [salish99_SSNG1_r04_937] (Eterna round: R96, puzzle: Same State NG 1)",252 nM,96.4 nM,148 nM,,,
"UUGGGUUUGCGAGGAUAUCGUUUGUGAUUUGAUCGAGAAGGCGCUAUUUAAAUUAUUUUAACAUUACAUGAGGAUCACCCAUGU [JR_SSNG1_Sub022] (Eterna round: R96, puzzle: Same State NG 1)",,14.8 nM,,,,
UUGGUGUAGAUACAGGAUAUGUUGCUUGUUACAUGAGGAUCACCCAUGUAUCUAUGAGAUUAAAUGCAGAAGGGUGCACAUCACU [salish99_ss2_r3_091] (puzzle: Same State 2),,,,52.9 nM,124 nM,169 nM
"UUGUUUUGAAAUUAACAUGAGGAUCACCCAUGUCUUGACACAGAGGAUAUACAUGAAUGUAGGUAGUAGAAGGCUGUUUAGUGU [JR_SSNG3_Sub098] (Eterna round: R96, puzzle: Same State NG 3)",,57.2 nM,,,,
"UUGUUUUGUAAUUAACAUGAGGAUCACCCAUGUCUUGGCUCAGAGGAUAUACAUGUUUGAUUGUAGUAGAAGGCUGAAUGUUGU [JR_SSNG3_Sub094] (Eterna round: R96, puzzle: Same State NG 3)",95.2 nM,96 nM,131 nM,,,
"UUUAGGAGUCAAGGAUAUGCUACCGUUUCGGUAGCAGAAGGUGAUCACAUGAGGAUCACCCAUGUAUGCAUGCGUGAGCGUGCU [JL SSNG1 3.62] (Eterna round: R96, puzzle: Same State NG 1)",,24.1 nM,,,,
UUUAGUUGCGGGCAGGAUAUGUAUUAAAAUACAUGAGGAUCACCCAUGUGGGACCGAAAAGGUCUACAGAAGGGCCAAUCGCGAC [Laonerce - 21] (puzzle: Same State 2),,,,17.1 nM,53.3 nM,77.1 nM
"UUUAUAUUCAGAGGAUAUUAAAGUAGUAUAACAUAAGAAGGCUGUUUGUUUUGUAAAGUAAUUCUACAUGAGGAUCACCCAUGU [JR_SSNG1_Sub085] (Eterna round: R96, puzzle: Same State NG 1)",,15.8 nM,,,,
"UUUAUUAAUGCAGGAUAUGAUUAACAUGAGGAUCACCCAUGUGGUGUUGUGAGUAAGGAGAGUGAUCAGAAGGGCAUUUUUUUU [JMF's solution 39] (Eterna round: R96, puzzle: Same State NG 2)",524 nM,430 nM,402 nM,,,
"UUUAUUUAUGCAGGAUAUGAUUAACAUGAGGAUCACCCAUGUGGUGUUGUGAGUAAGGAGAGUGAUCAGAAGGGCAUUUUUUUU [JMF's solution 76] (Eterna round: R96, puzzle: Same State NG 2)",610 nM,396 nM,487 nM,,,
UUUGGGUGGCUGGAGGAUAUCCUUGUUGUUACAUGAGGAUCACCCAUGUGCCGCGCGGUUCGCGAGGAGAAGGCUGGCGGCCGUU (puzzle: Same State 2),,,,,169 nM,
"UUUUCGAACCGAGGAUAUCCUUAUAAGAAACAUGAGGAUCACCCAUGUAAAGGGAAUUAUUUGUAGGAGAAGGCGGAUUUUGUU [JR_SSNG2_Sub054] (Eterna round: R96, puzzle: Same State NG 2)",,33.9 nM,,,,
UUUUUUUUUUAGAGACAAGCUUUUUGAUCACAUGAGGAUCACCCAUGUCUCGUCUUAUUUUUUUUUUUUUUUUUUUU [BA Sensor hsa-mir-208a - 2 - 4] (puzzle: Sensor for hsa-mir-208a),,,,37.3 nM,17.5 nM,103 nM
